Measured values reported in US20210171647A1 (WUXI BIOLOGICS SHANGHAI, published 2021).

Assays:
Test in all cases: ELISA, antibody coated, OX40-ECD.His mutant supernatant; relative to silent alanine substitutions;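 further: captured OX40 mutant protein detected with HRP-labelled anti-His antibody, absorbance read-out, scaled to the mean signal of control mutants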
human OX40-ECD.His Y119A = target: T1, human OX40-ECD.His Y119A (human, UniProt P43489 29-214)
T1 construct: extracellular domain; not shown: C-terminal His-tag
T1 sequence (looked up): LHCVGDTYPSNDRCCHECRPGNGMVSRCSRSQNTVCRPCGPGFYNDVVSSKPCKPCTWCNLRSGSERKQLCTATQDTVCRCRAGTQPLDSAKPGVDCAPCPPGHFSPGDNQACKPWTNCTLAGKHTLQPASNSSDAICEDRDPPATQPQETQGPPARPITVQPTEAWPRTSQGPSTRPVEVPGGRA

human OX40-ECD.His L155A = target: T2, human OX40-ECD.His L155A (human, UniProt P43489 29-214)
T2 construct: extracellular domain; not shown: C-terminal His-tag
T2 sequence (looked up): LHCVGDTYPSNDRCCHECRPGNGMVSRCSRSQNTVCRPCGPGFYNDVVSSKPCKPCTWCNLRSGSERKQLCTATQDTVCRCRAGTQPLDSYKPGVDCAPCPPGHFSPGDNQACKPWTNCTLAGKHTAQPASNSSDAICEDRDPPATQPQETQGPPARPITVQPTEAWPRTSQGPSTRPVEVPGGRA

human OX40-ECD.His S54A = target: T3, human OX40-ECD.His S54A (human, UniProt P43489 29-214)
T3 construct: extracellular domain; not shown: C-terminal His-tag
T3 sequence (looked up): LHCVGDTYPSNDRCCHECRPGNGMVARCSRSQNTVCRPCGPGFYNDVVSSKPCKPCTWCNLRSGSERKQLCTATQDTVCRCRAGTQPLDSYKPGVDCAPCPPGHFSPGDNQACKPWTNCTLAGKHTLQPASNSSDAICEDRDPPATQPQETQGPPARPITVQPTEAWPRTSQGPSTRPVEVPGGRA

human OX40-ECD.His V32A = target: T4, human OX40-ECD.His V32A (human, UniProt P43489 29-214)
T4 construct: extracellular domain; not shown: C-terminal His-tag
T4 sequence (looked up): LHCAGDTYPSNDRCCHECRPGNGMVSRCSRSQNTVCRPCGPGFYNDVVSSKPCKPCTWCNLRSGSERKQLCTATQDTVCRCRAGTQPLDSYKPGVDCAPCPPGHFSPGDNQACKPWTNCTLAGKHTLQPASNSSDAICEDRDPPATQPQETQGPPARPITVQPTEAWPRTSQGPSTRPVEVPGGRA

human OX40-ECD.His D117A = target: T5, human OX40-ECD.His D117A (human, UniProt P43489 29-214)
T5 construct: extracellular domain; not shown: C-terminal His-tag
T5 sequence (looked up): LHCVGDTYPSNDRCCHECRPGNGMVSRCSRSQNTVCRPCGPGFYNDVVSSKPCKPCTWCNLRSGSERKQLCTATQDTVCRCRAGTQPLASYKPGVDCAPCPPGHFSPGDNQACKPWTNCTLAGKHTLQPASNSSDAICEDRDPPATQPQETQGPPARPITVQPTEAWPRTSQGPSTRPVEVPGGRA

human OX40-ECD.His L149A = target: T6, human OX40-ECD.His L149A (human, UniProt P43489 29-214)
T6 construct: extracellular domain; not shown: C-terminal His-tag
T6 sequence (looked up): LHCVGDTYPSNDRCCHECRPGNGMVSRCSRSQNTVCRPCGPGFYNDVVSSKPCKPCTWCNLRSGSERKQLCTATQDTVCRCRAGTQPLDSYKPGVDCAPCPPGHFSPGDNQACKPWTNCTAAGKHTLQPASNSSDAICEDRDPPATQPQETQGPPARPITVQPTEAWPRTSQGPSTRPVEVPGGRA

human OX40-ECD.His V63A = target: T7, human OX40-ECD.His V63A (human, UniProt P43489 29-214)
T7 construct: extracellular domain; not shown: C-terminal His-tag
T7 sequence (looked up): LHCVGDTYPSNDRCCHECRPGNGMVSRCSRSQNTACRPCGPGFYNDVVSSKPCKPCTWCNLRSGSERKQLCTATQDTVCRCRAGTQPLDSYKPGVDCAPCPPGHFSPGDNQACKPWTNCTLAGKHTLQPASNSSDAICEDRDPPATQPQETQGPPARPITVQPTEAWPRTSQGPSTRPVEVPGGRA

human OX40-ECD.His L98A = target: T8, human OX40-ECD.His L98A (human, UniProt P43489 29-214)
T8 construct: extracellular domain; not shown: C-terminal His-tag
T8 sequence (looked up): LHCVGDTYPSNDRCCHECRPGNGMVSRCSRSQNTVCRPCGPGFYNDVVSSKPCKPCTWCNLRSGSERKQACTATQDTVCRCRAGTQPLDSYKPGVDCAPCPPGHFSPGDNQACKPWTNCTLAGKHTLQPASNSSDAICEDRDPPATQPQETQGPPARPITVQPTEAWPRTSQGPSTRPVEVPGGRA

human OX40-ECD.His N61A = target: T9, human OX40-ECD.His N61A (human, UniProt P43489 29-214)
T9 construct: extracellular domain; not shown: C-terminal His-tag
T9 sequence (looked up): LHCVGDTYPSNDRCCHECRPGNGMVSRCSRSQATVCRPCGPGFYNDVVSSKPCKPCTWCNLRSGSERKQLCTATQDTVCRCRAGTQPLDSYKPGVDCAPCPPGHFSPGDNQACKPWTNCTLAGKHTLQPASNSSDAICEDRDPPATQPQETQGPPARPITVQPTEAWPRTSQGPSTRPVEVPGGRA

human OX40-ECD.His S59A = target: T10, human OX40-ECD.His S59A (human, UniProt P43489 29-214)
T10 construct: extracellular domain; not shown: C-terminal His-tag
T10 sequence (looked up): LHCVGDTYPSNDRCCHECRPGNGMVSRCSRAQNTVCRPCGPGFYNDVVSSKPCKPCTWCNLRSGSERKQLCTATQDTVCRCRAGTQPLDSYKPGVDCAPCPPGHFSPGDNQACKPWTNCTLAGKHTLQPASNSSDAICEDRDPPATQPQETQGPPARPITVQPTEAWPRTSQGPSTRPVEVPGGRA

B1: 1.134.9-u1-IgG1L (antibody, V domains shown)
VH: QVQLQESGPGLVKPSGTLSLTCAVSGGSISSYNWWSWVRQPPGKGLEWIGEIYHGGNTNYNPSLKSRVTMSVDNSKNQFSLKLSSVTAADTAVYYCARAPGDWGGSPYFDFWGQGTLVTVSS
VL: SSELTQDPAVSVALGQTVRITCQGDNLRTYYASWYQQKPGQAPILLIYGRNKRPSGIPDRFSGSSSGNTASLTITGAQAEDEAAYYCNSRDSSGNPVVFGGGTKLTVL
notes: fully human IgG1, lambda
Human OX40-ECD.His Y119A
  Fold Change: 0.995
Human OX40-ECD.His L155A
  Fold Change: 0.959
Human OX40-ECD.His S54A
  Fold Change: 0.993
Human OX40-ECD.His V32A
  Fold Change: 1.01
Human OX40-ECD.His D117A
  Fold Change: 0.951
Human OX40-ECD.His L149A
  Fold Change: 1
Human OX40-ECD.His V63A
  Fold Change: 0.886
Human OX40-ECD.His L98A
  Fold Change: 1.01
Human OX40-ECD.His N61A
  Fold Change: 0.99
Human OX40-ECD.His S59A
  Fold Change: 1
